Data: PMC10603098

How the values were obtained:
[1] = target: GluA tetramers (sum of all co-purified GluA1-4 proteins divided by four) (rat (endogenous in rat brain)); assay: affinity purification with mass spectrometry; multi-epitope AP-MS: three polyclonal anti-GSG1L antibodies on protein A Dynabeads, 2 h; membranes of adult (P59) rat brain solubilised in CL-47; GSG1L KO rats as negative control; minimum tnR of 0.25 as indicator of specific interaction
[2] = target: homomeric GluA2Q_(flip) AMPA receptor, wild type (rat) (UniProt P19491)
[3] = target: homomeric GluA2Q_(flip) E658K AMPA receptor (rat) (UniProt P19491)
[4] = target: GluA1 E651K/GluA2(R) AMPA receptor heteromer (rat) (UniProt P19490)
[5] = target: GluA1 E651K/GluA2(R) E658K AMPA receptor heteromer (rat) (UniProt P19490)
[6] = target: GluA1/GluA2(R) AMPA receptor heteromer, wild type (rat) (UniProt P19490)
[7] = target: GluA1/GluA2(R) E658K AMPA receptor heteromer (rat) (UniProt P19490)

stoichiometry N (GSG1L per GluA tetramer) [1] | Substance | fast time constant of recovery from desensitization (τ (recovery), two-pulse protocol, 10 mM L-Glu, outside-out patches of HEK293T/17 cells co-expressing GluA2 and GSG1L) [2] | slow time constant of recovery from desensitization (τ (recovery), two-pulse protocol, 10 mM L-Glu, outside-out patches of HEK293T/17 cells co-expressing GluA2 and GSG1L) [2] | single time constant of recovery from desensitization of GluA2 E658K co-expressed with GSG1L (the mutation eliminated the ability of GSG1L to slow recovery) [3] | time constant of recovery from desensitization (mono-exponential) of heteromers with EK on GluA1 only, co-expressed with GSG1L [4] | single time constant of recovery from desensitization of heteromers with EK on both GluA1 and GluA2, co-expressed with GSG1L [5] | fast time constant of recovery from desensitization of GluA1/A2 heteromers co-expressed with GSG1L [6] | slow time constant of recovery from desensitization of GluA1/A2 heteromers co-expressed with GSG1L [6] | fast time constant of recovery from desensitization of heteromers with EK on GluA2 only, co-expressed with GSG1L [7] | slow time constant of recovery from desensitization of heteromers with EK on GluA2 only, co-expressed with GSG1L [7]
1.74 | germ cell-specific gene 1-like protein (GSG1L) (from UniProt D3ZK93 1-322) (natural protein) |  |  |  |  |  |  |  |  | 
 | mouse GSG1L (co-expressed, +GSG1L) (from UniProt D3Z7H4 1-322) (natural protein) | 37.5 ms | 322 ms | 48 ms | 338 ms | 130 ms | 23.7 ms | 548 ms | 80.6 ms | 446 ms
